Results as given in patent US20250012721A1, “FLUORESCENCE DETECTION KIT FOR ACTIVATED COMPLEMENT C1s, DETECTION METHOD USING SAME, AND USE THEREOF” (JIANGSU UNIVERSITY, priority 2022, published 2025).

Biological target: T1, activated C1s (Homo sapiens, UniProt P09871)
T1 construct: purchased Complement Technology
T1 sequence (P09871 16-437 limits assumed): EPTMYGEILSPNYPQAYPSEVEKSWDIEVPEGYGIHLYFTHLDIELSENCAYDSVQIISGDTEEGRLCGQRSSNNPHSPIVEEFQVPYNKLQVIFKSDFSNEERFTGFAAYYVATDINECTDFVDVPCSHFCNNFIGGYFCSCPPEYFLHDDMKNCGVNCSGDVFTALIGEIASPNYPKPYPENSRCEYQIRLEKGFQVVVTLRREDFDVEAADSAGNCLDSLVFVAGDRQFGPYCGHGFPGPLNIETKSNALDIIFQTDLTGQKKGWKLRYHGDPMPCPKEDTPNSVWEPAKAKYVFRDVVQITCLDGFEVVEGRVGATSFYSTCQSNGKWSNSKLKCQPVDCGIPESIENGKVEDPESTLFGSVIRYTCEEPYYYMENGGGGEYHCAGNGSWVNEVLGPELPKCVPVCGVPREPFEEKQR
T1 sequence (P09871 438-688 limits assumed): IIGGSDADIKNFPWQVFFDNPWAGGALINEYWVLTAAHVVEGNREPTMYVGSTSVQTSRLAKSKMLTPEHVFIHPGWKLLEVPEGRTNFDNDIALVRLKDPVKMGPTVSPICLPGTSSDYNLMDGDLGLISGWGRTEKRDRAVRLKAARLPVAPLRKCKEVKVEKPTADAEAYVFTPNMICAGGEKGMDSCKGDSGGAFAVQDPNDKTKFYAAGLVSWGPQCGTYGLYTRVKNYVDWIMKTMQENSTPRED
Test: N-carboxybenzyloxythiobenzyl ester/DTNB colorimetric detection of enzymatic activity of C1s standard
Type: biochemical
Conditions: for Enzymatic activity of C1s standards: conversion from Example 4
Source text: In the present disclosure, the enzymatic activity of activated C1s was detected in a sample to be tested. Therefore, it was necessary to determine the enzymatic activity of a C1s standard used in the experiment and to prepare a standard curve for later C1s enzymatic activity. The enzymatic activity of the activated C1s was detected by an N-carboxybenzyloxythiobenzyl ester/5,5′-dithiobis(2-nitrobenzoic acid) colorimetric method. The method specifically included the steps as follows: • (1) Materials: 1) Analysis buffer: 50 mM Tris, 250 mM NaCl, pH=8.0; • 2) substrate: N-carboxybenzyloxythiobenzyl ester (ZKSBzl), dissolved in 10 mM dimethyl sulfoxide; and • 3) 5,5′-dithiobis(2-nitrobenzoic acid) (DTNB), dissolved in 10 mM dimethyl sulfoxide. • (2) Detection of C1s activity units: • 1. The C1s standard was diluted to 0.2 μg/mL with an assay buffer. • 2. The DNTB was added to the assay buffer at a final concentration of 200 μM, and a substrate was added to the assay buffer at a final concentration of 1,000 μM. • 3. 50 μL of 0.2 ng/μL C1s was added into a plate. • 4. 50 μL of a mixture including 1,000 μM substrate/200 μM DTNB was added to the wells to start a reaction. • 5. An absorbance at 5 min was read at 405 nm with a microplate reader. • (3) Calculation of activated C1s:
In subsequent experiments, the enzymatic activity of the C1s standard was defined in this way.

B1: C1s standard: humanized or recombinant C1s standard; activated C1s used as calibrator (protein)
chain 1: T1 sequence (P09871 16-437 limits assumed)
chain 2: T1 sequence (P09871 438-688 limits assumed)
B1 was tested, and the enzymatic activity (1 μg/mL C1s standard) was 0.91 pmol/min/µg, the “Enzymatic activity of C1s standards” value (6.25 μg/mL) was 5.7 pmol/min/µg and the “Enzymatic activity of C1s standards” value (12.5 μg/mL) was 11.4 pmol/min/µg. The “Enzymatic activity of C1s standards” value (25 μg/mL) was 22.8 pmol/min/µg, the “Enzymatic activity of C1s standards” value (50 μg/mL) was 45.5 pmol/min/µg and the “Enzymatic activity of C1s standards” value (100 μg/mL) was 91 pmol/min/µg. The “Enzymatic activity of C1s standards” value (200 μg/mL) was 182 pmol/min/µg.
